# According to the supplement of paper PMC9112550, “Optimization of the antimicrobial peptide Bac7 by deep mutational scanning” (BMC Biology, 2022):
# System: Escherichia coli TOP10
# Test: shrunken log2 fold change of peptide-encoding DNA abundance (4.5 h post-induction vs induction); higher = less antimicrobial activity (less host growth inhibition)
# Conditions: time post-induction: 4.5 h; library: site-saturation at positions 5, 18, 19, 20
# 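Note: peptides expressed intracellularly from a pBAD plasmid library in pooled LB shake-flask culture, induced with 0.3% L-arabinose, DNA abundance read by NGS, three biological replicates, DESeq2 with apeglm shrinkage.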
row,Sequence,shrunken log2 fold change
1,RRIRRRPPRLPRPRPRPCNDPRP,-0.0872
2,RRIRTRPPRLPRPRPRPESWPRP,0.809
3,RRIRIRPPRLPRPRPRPPSIPRP,0.122
4,RRIRFRPPRLPRPRPRPLAAPRP,0.315
5,RRIRWRPPRLPRPRPRPMLKPRP,-0.109
6,RRIRARPPRLPRPRPRPLCDPRP,2.32
7,RRIRQRPPRLPRPRPRPNMPPRP,-0.634
8,RRIRARPPRLPRPRPRPGMQPRP,0.094
9,RRIRMRPPRLPRPRPRPFQWPRP,-0.0962
10,RRIRLRPPRLPRPRPRPEMQPRP,0.0197
11,RRIRDRPPRLPRPRPRPPERPRP,0.0665
12,RRIRSRPPRLPRPRPRPWQHPRP,0.14
13,RRIRRRPPRLPRPRPRPIRKPRP,-0.0416
14,RRIRVRPPRLPRPRPRPLYKPRP,-0.584
15,RRIRYRPPRLPRPRPRPPPEPRP,0.456
16,RRIRRRPPRLPRPRPRPTISPRP,-0.28
17,RRIRPRPPRLPRPRPRPSWFPRP,-0.248
18,RRIRVRPPRLPRPRPRPPMVPRP,0.0314
19,RRIRERPPRLPRPRPRPRELPRP,0.569
20,RRIRARPPRLPRPRPRPPCYPRP,0.146
21,RRIRNRPPRLPRPRPRPQYHPRP,-0.767
22,RRIRDRPPRLPRPRPRPKFYPRP,0.0101
23,RRIRNRPPRLPRPRPRPHRLPRP,-0.00303
24,RRIRNRPPRLPRPRPRPYDCPRP,-0.109
25,RRIRMRPPRLPRPRPRPCRVPRP,0.00805

row,Sequence,shrunken log2 fold change
1,RRIRSRPPRLPRPRPRPWHKPRP,-0.195
2,RRIRFRPPRLPRPRPRPYWHPRP,-0.754
3,RRIRIRPPRLPRPRPRPCMYPRP,-0.573
4,RRIRHRPPRLPRPRPRPGWSPRP,0.0123
5,RRIRVRPPRLPRPRPRPIHNPRP,-0.554
6,RRIRVRPPRLPRPRPRPYTMPRP,-0.49
7,RRIRDRPPRLPRPRPRPNLTPRP,-0.325
8,RRIRNRPPRLPRPRPRPAWGPRP,0.288
9,RRIRHRPPRLPRPRPRPLSVPRP,-0.136
10,RRIRHRPPRLPRPRPRPTKDPRP,-0.154
11,RRIRQRPPRLPRPRPRPNAHPRP,-0.18
12,RRIRCRPPRLPRPRPRPEESPRP,-0.00538
13,RRIRTRPPRLPRPRPRPQEVPRP,-0.0102
14,RRIRGRPPRLPRPRPRPHWDPRP,0.645
15,RRIRNRPPRLPRPRPRPQMNPRP,-0.614
16,RRIRQRPPRLPRPRPRPVPMPRP,0.132
17,RRIRFRPPRLPRPRPRPTVVPRP,0.174
18,RRIRNRPPRLPRPRPRPFSDPRP,-0.246
19,RRIRSRPPRLPRPRPRPQHIPRP,-1.21
20,RRIRHRPPRLPRPRPRPNVTPRP,-0.0118
21,RRIRFRPPRLPRPRPRPEWHPRP,-0.28
22,RRIRSRPPRLPRPRPRPIGEPRP,-0.017
23,RRIRRRPPRLPRPRPRPFFCPRP,0.167
24,RRIRWRPPRLPRPRPRPIQAPRP,-0.0237
25,RRIRKRPPRLPRPRPRPYKCPRP,-0.168

row,Sequence,shrunken log2 fold change
1,RRIRGRPPRLPRPRPRPPNAPRP,1.35
2,RRIRLRPPRLPRPRPRPGNSPRP,-0.0133
3,RRIRGRPPRLPRPRPRPINYPRP,0.000824
4,RRIRMRPPRLPRPRPRPAEEPRP,1.55
5,RRIRQRPPRLPRPRPRPHWLPRP,-0.222
6,RRIRERPPRLPRPRPRPIKQPRP,-0.00681
7,RRIRCRPPRLPRPRPRPTVCPRP,-0.0924
8,RRIRDRPPRLPRPRPRPGRLPRP,0.0513
9,RRIRLRPPRLPRPRPRPSTTPRP,-0.347
10,RRIRVRPPRLPRPRPRPWDLPRP,0.146
11,RRIRGRPPRLPRPRPRPTYIPRP,0.111
12,RRIRKRPPRLPRPRPRPDPIPRP,0.129
13,RRIRVRPPRLPRPRPRPYEMPRP,-0.311
14,RRIRGRPPRLPRPRPRPFNNPRP,-0.206
15,RRIRFRPPRLPRPRPRPGFVPRP,0.126
16,RRIRQRPPRLPRPRPRPWKFPRP,0.0543
17,RRIRERPPRLPRPRPRPCWNPRP,-0.107
18,RRIRVRPPRLPRPRPRPPNKPRP,-0.0216
19,RRIRKRPPRLPRPRPRPRHTPRP,0.328
20,RRIRHRPPRLPRPRPRPGMCPRP,-0.493
21,RRIRQRPPRLPRPRPRPWTFPRP,-0.0125
22,RRIRYRPPRLPRPRPRPQCHPRP,-0.198
23,RRIRKRPPRLPRPRPRPNKNPRP,0.125
24,RRIRSRPPRLPRPRPRPQEMPRP,0.111
25,RRIRMRPPRLPRPRPRPFVTPRP,-0.269

row,Sequence,shrunken log2 fold change
1,RRIRSRPPRLPRPRPRPQTCPRP,-0.0978
2,RRIRDRPPRLPRPRPRPNTLPRP,-0.269
3,RRIRRRPPRLPRPRPRPMHDPRP,0.117
4,RRIRSRPPRLPRPRPRPMMRPRP,0.836
5,RRIRFRPPRLPRPRPRPRISPRP,-0.0207
6,RRIRDRPPRLPRPRPRPRSYPRP,-0.0236
7,RRIRNRPPRLPRPRPRPQRKPRP,0.103
8,RRIRSRPPRLPRPRPRPTWRPRP,0.424
9,RRIRRRPPRLPRPRPRPKDGPRP,0.378
10,RRIRQRPPRLPRPRPRPQGSPRP,0.0165
11,RRIRHRPPRLPRPRPRPFVEPRP,-0.45
12,RRIRFRPPRLPRPRPRPVKVPRP,-0.297
13,RRIRERPPRLPRPRPRPTKLPRP,-0.0612
14,RRIRCRPPRLPRPRPRPVTRPRP,0.197
15,RRIRVRPPRLPRPRPRPMGGPRP,0.062
16,RRIRSRPPRLPRPRPRPNFDPRP,0.221
17,RRIRCRPPRLPRPRPRPHPGPRP,-0.156
18,RRIRTRPPRLPRPRPRPYQNPRP,-0.3
19,RRIRIRPPRLPRPRPRPRVHPRP,-0.0227
20,RRIRIRPPRLPRPRPRPMDCPRP,-0.115
21,RRIRTRPPRLPRPRPRPFYIPRP,-0.57
22,RRIRNRPPRLPRPRPRPPDMPRP,0.0955
23,RRIRERPPRLPRPRPRPWWIPRP,-0.021
24,RRIRSRPPRLPRPRPRPHDEPRP,0.0683
25,RRIRPRPPRLPRPRPRPTMYPRP,0.125

row,Sequence,shrunken log2 fold change
1,RRIRIRPPRLPRPRPRPRVIPRP,-0.209
2,RRIRHRPPRLPRPRPRPKWAPRP,0.279
3,RRIRWRPPRLPRPRPRPQNTPRP,0.591
4,RRIRLRPPRLPRPRPRPIMPPRP,-0.459
5,RRIRVRPPRLPRPRPRPPFTPRP,0.955
6,RRIRQRPPRLPRPRPRPTKLPRP,-0.0369
7,RRIRGRPPRLPRPRPRPTFSPRP,0.162
8,RRIRKRPPRLPRPRPRPLVHPRP,0.0415
9,RRIRLRPPRLPRPRPRPSRFPRP,-0.211
10,RRIRKRPPRLPRPRPRPVVYPRP,-0.266
11,RRIRDRPPRLPRPRPRPGVKPRP,0.0336
12,RRIRFRPPRLPRPRPRPAMAPRP,0.0902
13,RRIRTRPPRLPRPRPRPAVMPRP,0.06
14,RRIRNRPPRLPRPRPRPSNVPRP,-0.615
15,RRIRWRPPRLPRPRPRPTVMPRP,-0.374
16,RRIRMRPPRLPRPRPRPDFYPRP,0.06
17,RRIRMRPPRLPRPRPRPVERPRP,0.015
18,RRIRMRPPRLPRPRPRPWKPPRP,-0.0836
19,RRIRKRPPRLPRPRPRPDPHPRP,-0.0362
20,RRIRPRPPRLPRPRPRPNPHPRP,0.0866
21,RRIRPRPPRLPRPRPRPRTTPRP,0.332
22,RRIRQRPPRLPRPRPRPGDSPRP,-0.0573
23,RRIRTRPPRLPRPRPRPFLYPRP,-0.786
24,RRIRNRPPRLPRPRPRPFFGPRP,0.239
25,RRIRKRPPRLPRPRPRPNPWPRP,0.00515

row,Sequence,shrunken log2 fold change
1,RRIRGRPPRLPRPRPRPWRRPRP,0.054
2,RRIRERPPRLPRPRPRPLAWPRP,0.039
3,RRIRRRPPRLPRPRPRPPNKPRP,0.333
4,RRIRERPPRLPRPRPRPEVYPRP,-0.0514
5,RRIRCRPPRLPRPRPRPNWEPRP,0.0349
6,RRIRRRPPRLPRPRPRPCDHPRP,0.0118
7,RRIRWRPPRLPRPRPRPLHRPRP,0.0218
8,RRIRYRPPRLPRPRPRPHPEPRP,0.037
9,RRIRMRPPRLPRPRPRPGPGPRP,2.09
10,RRIRERPPRLPRPRPRPGGSPRP,0.154
11,RRIRVRPPRLPRPRPRPFNDPRP,-0.416
12,RRIRYRPPRLPRPRPRPATAPRP,0.132
13,RRIRKRPPRLPRPRPRPMPEPRP,-0.0371
14,RRIRRRPPRLPRPRPRPLEKPRP,0.477
15,RRIRGRPPRLPRPRPRPFWMPRP,0.103
16,RRIRPRPPRLPRPRPRPAKIPRP,0.0125
17,RRIRYRPPRLPRPRPRPECLPRP,-0.171
18,RRIRGRPPRLPRPRPRPYQHPRP,-0.376
19,RRIRYRPPRLPRPRPRPRERPRP,0.126
20,RRIRNRPPRLPRPRPRPVILPRP,-0.61
21,RRIRRRPPRLPRPRPRPLCPPRP,1.21
22,RRIRDRPPRLPRPRPRPWSTPRP,-0.274
23,RRIRPRPPRLPRPRPRPWNHPRP,-0.485
24,RRIRDRPPRLPRPRPRPIMNPRP,0.0718
25,RRIRGRPPRLPRPRPRPGNIPRP,-0.104
